Consider 8 sequences from the DeepSol protein solubility set.

The data set is described as follows: soluble on expression in E. coli; label from the status in PepcDB or PDB records.
On to “TRTEISPGKAPFTIEHNQTVVTIGSCFSDMIGEKLQYYKFDVLANPFGTTFNPISIFQLLTIAIEKKFNPFPASLGEIWYDHQFHSEVSALSAEALHELTNERIAAATKSLARASCLVITLGSAWVYRHVETNTIVNNCHKQSGRYFKKELLSVKHILEDFETVYAKLKELNPSIKIIFTVSPVRHIKDTLQLNSVSKAILLSSVHYMCEQHTDCHYFPSYEIQMDDLRDYRYYAEDLIHPSKQAEKYIWKKLSNWVFSSDLLAALEEWDQLQKLLHHKAF”, for which the “soluble on expression in E. coli” value is recorded as “not soluble”.

In the case of “MDALIMAGGKGTRLKENVEKPILNICEKPMIDYVIDSLLNSKIEKIYVAVSIHTPKTKEYLEKKYRLDRNYNPKIDIICTSGTNYVDDLNECMEFFKEPFLILSSDIPTIKPKVINSIIQDYLFVNNSCNRIESFCVVTKDDDYVGTPSINMGGYIPLGINILTPKHGEQTEILHVIKDIIVNVNTLSDKKLVETLINKVVELEHHHHHH”, the “soluble on expression in E. coli” value was “soluble”.

With “MARSLVFIAIALIAVVSAGPGDKDQPKPDHKKGPGGFHHFFPKFFGNVSEEGKKEIGALFKNQDLTLAEVDTKIAALAEKYGVAAAYKEHKAKEATNEAEAKKKTASVISNLSAVSAKLTAIHDNKSLTRKAQREAIAALRKEHEAEVAALDFIGKRSHGFGKHHGRHGKGNGKFFGKRGGNKMERKTAAQ”, the “soluble on expression in E. coli” value is on record as “not soluble”.

Take “GSHMPVVHVIDVESGNLQSLTNAIEHLGYEVQLVKSPKDFNISGTSRLILPGVGNYGHFVDNLFNRGFEKPIREYIESGKPIMGICVGLQALFAGSVESPKSTGLNYIDFKLSRFDDSEKPVPEIGWNSCIPSENLFFGLDPYKRYYFVHSFAAILNSEKKKNLENDGWKIAKAKYGSEEFIAAVNKNNIFATQFHPEKSGKAGLNVIENFLKQQSPPIPNYSAEEKELLMNDYSNYGLTRRIIACLDVRTNDQGDLVVTKGDQYDVREKSDGKGVRNLGKPVQLAQKYYQQGADEVTFLNITSFRDCPLKDTPMLEVLKQAAKTVFVPLTVGGGIKDIVDVDGTKIPALEVASLYFRSGADKVSIGTDAVYAAEKYYELGNRGDGTSPIETISKAYGAQAVVISVDPKRVYVNSQADTKNKVFETEYPGPNGEKYCWYQCTIKGGRESRDLGVWELTRACEALGAGEILLNCIDKDGSNSGYDLELIEHVKDAVKIPVIASSGAGVPEHFEEAFLKTRADACLGAGMFHRGEFTVNDVKEYLLEHGLKVRMDEE”: the “soluble on expression in E. coli” value is listed as “soluble”.

Take “MSLSEVLDLDGELNLLVWNIYKQNRANWSTQLTELSRDQQLLLLQEANMTPAFKEWIHQLGWDGTQARAFEAFGETAGVINLAKVMPTMACAYTQLEPWLRLPKSAIYARYRLSDGQELVVVNLHAVNFTYGTQEYQQQLIALLDELRDFTGPVIVAGDFNSWSEARMALLSTQLASVGLQEVRFSPDNRTTFINGLPLDHVFYRGLQLEKAEAPISDASDHNPLLVRFRLLNEGHHHHHH”: the “soluble on expression in E. coli” value is “soluble”.

Turning to “AHHHHHHGSVDMSKVKLRIENIVASVDLFAQLDLEKVLDLCPNSKYNPEEFPGIICHLDDPKVALLIFSSGKLVVTGAKSVQDIERAVAKLAQKLKSIGVKFKRAPQIDVQNMVFSGDIGREFNLDVVALTLPNCEYEPEQFPGVIYRVKEPKSVILLFSSGKIVCSGAKSEADAWEAVRKLLRELDKYGLLEEEEEEL”, the “soluble on expression in E. coli” value is listed as “soluble”.

As for “AIAWNKKNEEKEDFGIIVILWKQVTVKEDGKVPLEPFLTAAKEVLRVVDAFGSGFRIVKNDIAGNIKKLYRANQTVHAETLQELIIAENSPDGLATVALLWLKRAFQFIASFLRRLVVTDKSLEQCVTEAYNCTLRPCHSAVIQKVFWGGVKLAPSRERFYRKLHPDLNIAKAKIEEFLIELHDPLCCIVQFFFQRELEDQCWGDEVYQRKDSSEWLKVSCEQDSV”, the “soluble on expression in E. coli” value is given as “soluble”.

As to “MSLSHRPVINASVSPKGTLETLSQREVQQLSETANGKTYQLFRQCAPAILNTGAHSDNAKTILDAYKDFEVRIHQQDRGVRLELINAPADAFVDGEMIASTREMLFSALRDIVYTQSGLDSQHVDLDSSQGLTDYVFQLLRNARTLRPGVEPKIVVCWGGHSISSEEYKYTKRVGHELGLRSLDVCTGCGPGVMKGPMKGATISHAKQRIVGGRYLGLTEPGIIAAEAPNPIVNELVILPDIEKRLEAFVRVGHGVIIFPGGAGTAEEFLYLLGILMHPDNQDLPFPVILTGPRSAEAYLQQLHEFVGATLGHAAQRHYRIVIDDPAEVAKQMAQGLKEVKQFRRERNDAFHFNWMLKIDESFQRPFEPTHENMASLQLSRSLPPHELAANLRRAFSGIVAGNVKDNGIRMIEQYGPYEIHGDPAVMLPLDRLLQAFVKQHRMKLPGGAAYVPCYRVVQTEAAEGHHHHHH”, the “soluble on expression in E. coli” value was “soluble”.
